Measured values published in US20170355766A1 (Xencor, published 2017).
Numbering of substitutions follows the chain as printed. Numbers in names are those of the source.

T1: FcγRIIaR (human, UniProt P12318)
T1 construct: recombinant receptor protein with 6xHis and GST tags; also called R131 FcγRIIa
T1 sequence (receptor, looked up): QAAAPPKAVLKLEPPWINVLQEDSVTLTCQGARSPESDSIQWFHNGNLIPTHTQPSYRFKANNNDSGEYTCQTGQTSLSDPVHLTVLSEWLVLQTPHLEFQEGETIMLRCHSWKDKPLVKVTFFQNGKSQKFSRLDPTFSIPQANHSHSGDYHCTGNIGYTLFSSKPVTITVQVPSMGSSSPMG

T2: human H131 FcγRIIa receptor protein (6xHis and GST tags) (human, UniProt P12318 34-217, limits assumed)
T2 construct: also called HIIa
T2 sequence (looked up): T1 sequence (receptor, looked up) with R134H

T3: human FcγRIIb receptor protein (R&D Systems) (human, UniProt P31994 46-217)
T3 construct: Analyte injected over antibodies captured on a protein A/G chip (Biacore); also called CD32b
T3 sequence (looked up): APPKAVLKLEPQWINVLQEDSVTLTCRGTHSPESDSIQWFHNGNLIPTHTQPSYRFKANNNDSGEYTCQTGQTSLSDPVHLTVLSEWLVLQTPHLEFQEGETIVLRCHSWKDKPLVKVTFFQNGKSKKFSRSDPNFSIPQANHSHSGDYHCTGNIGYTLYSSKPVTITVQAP

B1: A327N (antibody, human IgG1, kappa)
heavy: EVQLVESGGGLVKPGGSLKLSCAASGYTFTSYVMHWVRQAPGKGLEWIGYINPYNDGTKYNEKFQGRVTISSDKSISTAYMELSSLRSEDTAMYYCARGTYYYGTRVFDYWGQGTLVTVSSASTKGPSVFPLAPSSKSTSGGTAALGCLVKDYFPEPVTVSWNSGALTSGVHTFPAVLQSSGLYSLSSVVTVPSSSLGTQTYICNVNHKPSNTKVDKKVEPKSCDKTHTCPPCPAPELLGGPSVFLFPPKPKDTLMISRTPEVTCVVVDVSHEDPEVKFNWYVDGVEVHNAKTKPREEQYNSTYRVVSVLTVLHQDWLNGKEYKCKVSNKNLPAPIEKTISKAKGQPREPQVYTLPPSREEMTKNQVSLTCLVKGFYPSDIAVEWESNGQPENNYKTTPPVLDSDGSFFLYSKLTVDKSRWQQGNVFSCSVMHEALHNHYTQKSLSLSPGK
light: DIVMTQSPATLSLSPGERATLSCRSSKSLQNVNGNTYLYWFQQKPGQSPQLLIYRMSNLNSGVPDRFSGSGSGTEFTLTISSLEPEDFAVYYCMQHLEYPITFGAGTKLEIKRTVAAPSVFIFPPSDEQLKSGTASVVCLLNNFYPREAKVQWKVDNALQSGNSQESVTEQDSKDSTYSLSSTLTLSKADYEKHKVYACEVTHQGLSSPVTKSFNRGEC
notes: HuAM4G7 IgG1 Fc variant
B2: G236D/S239D/S267E (antibody, human IgG1, kappa)
heavy: EVQLVESGGGLVKPGGSLKLSCAASGYTFTSYVMHWVRQAPGKGLEWIGYINPYNDGTKYNEKFQGRVTISSDKSISTAYMELSSLRSEDTAMYYCARGTYYYGTRVFDYWGQGTLVTVSSASTKGPSVFPLAPSSKSTSGGTAALGCLVKDYFPEPVTVSWNSGALTSGVHTFPAVLQSSGLYSLSSVVTVPSSSLGTQTYICNVNHKPSNTKVDKKVEPKSCDKTHTCPPCPAPELLDGPDVFLFPPKPKDTLMISRTPEVTCVVVDVEHEDPEVKFNWYVDGVEVHNAKTKPREEQYNSTYRVVSVLTVLHQDWLNGKEYKCKVSNKALPAPIEKTISKAKGQPREPQVYTLPPSREEMTKNQVSLTCLVKGFYPSDIAVEWESNGQPENNYKTTPPVLDSDGSFFLYSKLTVDKSRWQQGNVFSCSVMHEALHNHYTQKSLSLSPGK
light: B1 light
notes: HuAM4G7 IgG1 Fc variant
B3: L234E/S267E/L328F (antibody, human IgG1, kappa)
heavy: B2 heavy with L238E, D240G, D243S, L332F
light: B1 light
notes: HuAM4G7 IgG1 Fc variant
B4: G237D/S267E (antibody, human IgG1, kappa)
heavy: not shown
light: B1 light
notes: HuAM4G7 IgG1 Fc variant
B5: L234E/S267E (antibody, human IgG1, kappa)
heavy: not shown
light: B1 light
notes: HuAM4G7 IgG1 Fc variant
B6: L235D/S267E/L328F (antibody, human IgG1, kappa)
heavy: B2 heavy with L239D, D240G, D243S, L332F
light: B1 light
notes: HuAM4G7 IgG1 Fc variant
B7: G237A (antibody, human IgG1, kappa)
heavy: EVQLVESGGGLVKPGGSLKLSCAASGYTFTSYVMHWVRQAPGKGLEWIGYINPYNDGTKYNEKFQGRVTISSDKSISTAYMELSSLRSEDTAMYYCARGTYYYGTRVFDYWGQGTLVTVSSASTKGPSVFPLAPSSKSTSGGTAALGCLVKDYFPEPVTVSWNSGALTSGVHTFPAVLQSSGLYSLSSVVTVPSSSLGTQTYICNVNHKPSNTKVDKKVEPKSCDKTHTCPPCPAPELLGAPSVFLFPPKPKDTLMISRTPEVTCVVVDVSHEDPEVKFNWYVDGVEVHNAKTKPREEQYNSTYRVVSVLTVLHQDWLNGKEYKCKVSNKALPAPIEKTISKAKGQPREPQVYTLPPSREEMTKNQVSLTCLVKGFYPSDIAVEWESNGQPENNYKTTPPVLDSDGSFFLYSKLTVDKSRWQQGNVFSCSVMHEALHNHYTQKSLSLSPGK
light: B1 light
notes: HuAM4G7 IgG1 Fc variant
B8: G236D/S267E/L328F (antibody, human IgG1, kappa)
heavy: B2 heavy with D243S, L332F
light: B1 light
notes: HuAM4G7 IgG1 Fc variant
B9: G236N/S267E (antibody, human IgG1, kappa)
heavy: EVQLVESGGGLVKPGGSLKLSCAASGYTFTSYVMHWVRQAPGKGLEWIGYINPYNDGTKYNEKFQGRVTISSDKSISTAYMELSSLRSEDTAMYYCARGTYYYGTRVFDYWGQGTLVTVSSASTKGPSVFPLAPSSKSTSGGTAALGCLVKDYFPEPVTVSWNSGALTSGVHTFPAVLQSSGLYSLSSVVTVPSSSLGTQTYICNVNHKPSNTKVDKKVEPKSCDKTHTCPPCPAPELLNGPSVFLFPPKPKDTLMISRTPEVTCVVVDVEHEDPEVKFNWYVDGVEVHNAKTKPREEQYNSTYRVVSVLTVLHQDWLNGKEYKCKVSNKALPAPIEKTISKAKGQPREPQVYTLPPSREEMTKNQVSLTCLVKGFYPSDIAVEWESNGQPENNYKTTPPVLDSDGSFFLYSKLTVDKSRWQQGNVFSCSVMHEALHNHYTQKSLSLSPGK
light: B1 light
notes: HuAM4G7 IgG1 Fc variant
B10: L235A (antibody, human IgG1, kappa)
heavy: not shown
light: B1 light
notes: HuAM4G7 IgG1 Fc variant
B11: L235D/S267E (antibody, human IgG1, kappa)
heavy: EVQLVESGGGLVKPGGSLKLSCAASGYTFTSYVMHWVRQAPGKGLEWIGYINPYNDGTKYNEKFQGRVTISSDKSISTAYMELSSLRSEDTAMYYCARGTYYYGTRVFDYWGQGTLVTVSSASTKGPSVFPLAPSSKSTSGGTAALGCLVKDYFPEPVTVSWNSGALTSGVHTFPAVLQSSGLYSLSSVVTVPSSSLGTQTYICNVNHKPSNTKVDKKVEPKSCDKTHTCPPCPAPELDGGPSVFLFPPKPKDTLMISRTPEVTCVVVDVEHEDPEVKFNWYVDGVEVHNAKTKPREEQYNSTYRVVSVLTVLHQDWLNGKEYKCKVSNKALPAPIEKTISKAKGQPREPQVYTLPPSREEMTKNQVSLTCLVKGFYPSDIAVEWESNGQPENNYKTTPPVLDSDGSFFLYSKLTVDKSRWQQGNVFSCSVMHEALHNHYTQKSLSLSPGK
light: B1 light
notes: HuAM4G7 IgG1 Fc variant
B12: L235Y (antibody, human IgG1, kappa)
heavy: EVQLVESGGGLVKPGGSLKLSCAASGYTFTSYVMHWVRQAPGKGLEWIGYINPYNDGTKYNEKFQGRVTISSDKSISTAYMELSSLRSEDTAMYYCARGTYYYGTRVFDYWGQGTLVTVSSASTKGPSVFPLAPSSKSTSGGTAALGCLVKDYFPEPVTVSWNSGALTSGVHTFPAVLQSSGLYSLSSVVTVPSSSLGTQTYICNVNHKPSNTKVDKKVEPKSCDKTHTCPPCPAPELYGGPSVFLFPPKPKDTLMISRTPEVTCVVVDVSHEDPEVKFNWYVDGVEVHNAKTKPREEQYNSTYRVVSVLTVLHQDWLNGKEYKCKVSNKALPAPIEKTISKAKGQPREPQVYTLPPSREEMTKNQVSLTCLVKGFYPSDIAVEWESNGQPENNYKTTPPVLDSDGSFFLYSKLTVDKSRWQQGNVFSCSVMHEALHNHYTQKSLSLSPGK
light: B1 light
notes: HuAM4G7 IgG1 Fc variant
B13: L235I (antibody, human IgG1, kappa)
heavy: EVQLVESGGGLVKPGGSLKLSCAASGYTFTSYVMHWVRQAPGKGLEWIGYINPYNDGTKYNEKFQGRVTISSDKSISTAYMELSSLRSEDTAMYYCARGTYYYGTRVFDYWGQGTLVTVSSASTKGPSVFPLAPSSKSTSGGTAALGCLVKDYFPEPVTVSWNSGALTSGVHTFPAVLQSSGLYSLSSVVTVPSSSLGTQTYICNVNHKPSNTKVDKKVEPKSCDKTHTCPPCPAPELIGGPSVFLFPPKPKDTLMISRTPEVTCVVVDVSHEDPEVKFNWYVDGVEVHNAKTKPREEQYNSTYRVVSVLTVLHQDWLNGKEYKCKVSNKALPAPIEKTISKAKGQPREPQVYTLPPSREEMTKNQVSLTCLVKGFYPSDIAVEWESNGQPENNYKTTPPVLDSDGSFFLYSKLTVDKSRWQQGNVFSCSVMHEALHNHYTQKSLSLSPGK
light: B1 light
notes: HuAM4G7 IgG1 Fc variant
B14: H268E (antibody, human IgG1, kappa)
heavy: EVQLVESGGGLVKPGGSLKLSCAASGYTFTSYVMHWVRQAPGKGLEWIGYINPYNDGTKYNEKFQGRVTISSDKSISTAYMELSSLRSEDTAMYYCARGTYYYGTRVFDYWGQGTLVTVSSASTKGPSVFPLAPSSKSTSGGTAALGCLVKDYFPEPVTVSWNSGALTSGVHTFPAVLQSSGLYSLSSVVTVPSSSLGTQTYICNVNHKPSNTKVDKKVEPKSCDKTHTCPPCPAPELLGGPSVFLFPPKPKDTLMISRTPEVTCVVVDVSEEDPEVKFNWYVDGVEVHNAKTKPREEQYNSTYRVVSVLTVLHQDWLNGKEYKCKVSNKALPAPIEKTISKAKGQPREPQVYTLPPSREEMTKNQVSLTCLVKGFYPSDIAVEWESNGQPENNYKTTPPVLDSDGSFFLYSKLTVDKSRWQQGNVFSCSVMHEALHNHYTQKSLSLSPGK
light: B1 light
notes: HuAM4G7 IgG1 Fc variant
B15: G236D/S267E/H268E (antibody, human IgG1, kappa)
heavy: B2 heavy with D243S, H272E
light: B1 light
notes: HuAM4G7 IgG1 Fc variant
B16: L235F/S267E (antibody, human IgG1, kappa)
heavy: not shown
light: B1 light
notes: HuAM4G7 IgG1 Fc variant
B17: L235Y/G236D/S267E (antibody, human IgG1, kappa)
heavy: B2 heavy with L239Y, D243S
light: B1 light
notes: HuAM4G7 IgG1 Fc variant
B18: H268D (antibody, human IgG1, kappa)
heavy: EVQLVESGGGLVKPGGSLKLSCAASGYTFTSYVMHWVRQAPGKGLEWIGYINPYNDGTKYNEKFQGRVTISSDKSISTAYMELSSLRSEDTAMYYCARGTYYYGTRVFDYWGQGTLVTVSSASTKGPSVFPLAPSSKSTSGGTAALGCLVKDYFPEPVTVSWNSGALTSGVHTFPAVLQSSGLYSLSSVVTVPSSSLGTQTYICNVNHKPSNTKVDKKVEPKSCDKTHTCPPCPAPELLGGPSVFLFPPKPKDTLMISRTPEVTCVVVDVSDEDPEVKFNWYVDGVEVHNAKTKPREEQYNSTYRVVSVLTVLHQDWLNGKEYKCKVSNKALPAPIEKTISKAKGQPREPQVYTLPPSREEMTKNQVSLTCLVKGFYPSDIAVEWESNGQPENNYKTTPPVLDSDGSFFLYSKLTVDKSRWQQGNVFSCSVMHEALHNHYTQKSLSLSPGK
light: B1 light
notes: HuAM4G7 IgG1 Fc variant
B19: L234F/S267E (antibody, human IgG1, kappa)
heavy: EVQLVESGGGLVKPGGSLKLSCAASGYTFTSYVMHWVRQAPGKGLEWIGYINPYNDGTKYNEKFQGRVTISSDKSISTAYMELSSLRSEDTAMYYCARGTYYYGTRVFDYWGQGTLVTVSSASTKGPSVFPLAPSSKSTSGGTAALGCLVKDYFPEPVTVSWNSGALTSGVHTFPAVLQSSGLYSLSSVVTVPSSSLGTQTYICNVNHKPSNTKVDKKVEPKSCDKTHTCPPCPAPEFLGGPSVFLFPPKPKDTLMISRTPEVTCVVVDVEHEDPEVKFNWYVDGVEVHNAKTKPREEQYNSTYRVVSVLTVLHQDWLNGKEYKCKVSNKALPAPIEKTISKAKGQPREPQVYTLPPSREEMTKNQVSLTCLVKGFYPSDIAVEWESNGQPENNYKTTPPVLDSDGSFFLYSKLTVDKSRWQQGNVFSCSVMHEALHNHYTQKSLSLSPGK
light: B1 light
notes: HuAM4G7 IgG1 Fc variant
B20: L234F (antibody, human IgG1, kappa)
heavy: not shown
light: B1 light
notes: HuAM4G7 IgG1 Fc variant

Target: T4, human FcγRI receptor protein (R&D Systems) (human, UniProt P12314 16-288)
T4 construct: also called CD64
T4 sequence (P12314 16-288 limits assumed): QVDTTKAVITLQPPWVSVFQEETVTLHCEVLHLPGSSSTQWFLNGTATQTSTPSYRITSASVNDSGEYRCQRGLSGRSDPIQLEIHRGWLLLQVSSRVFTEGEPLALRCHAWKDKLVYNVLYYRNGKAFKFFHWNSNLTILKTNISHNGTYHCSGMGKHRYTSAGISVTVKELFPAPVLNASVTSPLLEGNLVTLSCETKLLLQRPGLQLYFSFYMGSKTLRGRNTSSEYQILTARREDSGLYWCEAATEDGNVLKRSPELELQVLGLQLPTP
Experiment: SPR (Biacore)

Fold FcγRI | binding result | Binder
0.0279 fold |  | B1
0.0685 fold |  | B2
0.0425 fold |  | B3
0.0874 fold |  | B4
0.131 fold |  | B5
0.00057 fold |  | B6
0.0108 fold |  | B7
0.0736 fold |  | B8
0.0355 fold |  | B9
0.0179 fold |  | B10
0.00039 fold |  | B11
0.00232 fold |  | B12
0.0197 fold |  | B13
2.74 fold |  | B14
0.0902 fold |  | B15
0.0176 fold |  | B16
 | no binding | B17
2.35 fold |  | B18
0.661 fold |  | B19
0.0362 fold |  | B20

Target: T1, FcγRIIaR
Experiment: SPR (Biacore)

Fold FcγRIIaR | Binder
0.609 fold | B1
26.7 fold | B2
174 fold | B3
13.6 fold | B4
10.7 fold | B5
133 fold | B6
0.704 fold | B7
59.9 fold | B8
3.27 fold | B9
0.166 fold | B10
13 fold | B11
1.28 fold | B12
0.666 fold | B13
3.19 fold | B14
29.9 fold | B15
32.5 fold | B16
9.67 fold | B17
4.19 fold | B18
20.7 fold | B19
0.228 fold | B20

Target: T2, human H131 FcγRIIa receptor protein …
Experiment: SPR (Biacore)

binding result | Fold FcγRIIaH | Binder
no binding |  | B1
 | 0.217 fold | B2
 | 0.0725 fold | B3
no binding |  | B4
no binding |  | B5
 | 0.275 fold | B6
no binding |  | B7
 | 0.0301 fold | B8
no binding |  | B9
 | 0.0486 fold | B10
no binding |  | B11
 | 1.35 fold | B12
 | 0.181 fold | B13
 | 1.43 fold | B14
 | 0.103 fold | B15
 | 0.402 fold | B16
no binding |  | B17
 | 1.89 fold | B18
 | 0.509 fold | B19
no binding |  | B20

Target: T5, human V158 FcγRIIIa receptor protein (6xHis and GST tags) (human, UniProt P08637 17-208, limits assumed)
T5 construct: also called VIIIa
T5 sequence (P08637 17-208 F176V limits assumed): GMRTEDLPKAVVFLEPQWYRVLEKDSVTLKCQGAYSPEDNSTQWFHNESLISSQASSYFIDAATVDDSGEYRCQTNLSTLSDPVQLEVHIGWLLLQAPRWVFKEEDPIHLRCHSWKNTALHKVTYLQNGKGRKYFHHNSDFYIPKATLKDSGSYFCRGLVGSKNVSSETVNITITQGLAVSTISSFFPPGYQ
Experiment: SPR (Biacore)

binding result | Fold FcγRIIIaV | Binder
no binding |  | B1
no binding |  | B2
no binding |  | B3
no binding |  | B4
no binding |  | B5
no binding |  | B6
no binding |  | B7
no binding |  | B8
no binding |  | B9
 | 0.314 fold | B10
no binding |  | B11
 | 0.504 fold | B12
 | 0.903 fold | B13
 | 2.19 fold | B14
no binding |  | B15
no binding |  | B16
no binding |  | B17
 | 3.08 fold | B18
 | 0.0938 fold | B19
no binding |  | B20

Target: T3, human FcγRIIb receptor protein (R&D …)
Experiment: SPR (Biacore)

Fold FcγRIIb | Binder
0.843 fold | B1
84.8 fold | B2
195 fold | B3
17 fold | B4
15.1 fold | B5
80.4 fold | B6
0.191 fold | B7
149 fold | B8
19.8 fold | B9
0.351 fold | B10
16.7 fold | B11
1.05 fold | B12
0.908 fold | B13
2.62 fold | B14
110 fold | B15
28.4 fold | B16
25 fold | B17
3.06 fold | B18
26.4 fold | B19
0.409 fold | B20
